Results reported in patent publication US20260125451A1 (JIANGSU HENGRUI PHARMACEUTICALS, published 2026).
Where two headings read alike, the source gives them in different places.

T1: type I interferon (IFN) receptor subunit 1 (IFNAR1) (human, UniProt P17181 28-557)
T1 sequence (looked up): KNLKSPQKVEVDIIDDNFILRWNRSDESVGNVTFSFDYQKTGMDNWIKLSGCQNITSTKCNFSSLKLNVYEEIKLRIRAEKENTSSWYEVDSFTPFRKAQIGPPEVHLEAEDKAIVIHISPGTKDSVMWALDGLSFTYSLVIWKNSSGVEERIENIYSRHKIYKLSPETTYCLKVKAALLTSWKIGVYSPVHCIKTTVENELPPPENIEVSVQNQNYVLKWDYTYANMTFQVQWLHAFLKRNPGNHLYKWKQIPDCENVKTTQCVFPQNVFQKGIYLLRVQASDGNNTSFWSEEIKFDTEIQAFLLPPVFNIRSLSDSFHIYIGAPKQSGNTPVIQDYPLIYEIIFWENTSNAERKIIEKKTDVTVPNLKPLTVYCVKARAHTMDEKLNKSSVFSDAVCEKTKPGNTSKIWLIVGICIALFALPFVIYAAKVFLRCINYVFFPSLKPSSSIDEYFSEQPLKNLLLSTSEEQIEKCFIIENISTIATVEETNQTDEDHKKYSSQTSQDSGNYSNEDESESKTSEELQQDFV

T2: recombinant human ARPIL (R&D cat: 5860-AP-010/CF) (human, UniProt O75888 105-250, limits assumed)
T2 sequence (looked up): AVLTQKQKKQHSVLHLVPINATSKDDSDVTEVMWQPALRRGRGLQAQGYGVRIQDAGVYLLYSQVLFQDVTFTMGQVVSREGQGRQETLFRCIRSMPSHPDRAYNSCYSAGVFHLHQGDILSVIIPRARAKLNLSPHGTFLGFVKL

T3: APRIL (Acro Biosystems, Cat: APL-H52D1) (UniProt O75888 115-250, limits assumed)
T3 construct: also called ARPIL; A proliferation-inducing ligand
T3 sequence (looked up): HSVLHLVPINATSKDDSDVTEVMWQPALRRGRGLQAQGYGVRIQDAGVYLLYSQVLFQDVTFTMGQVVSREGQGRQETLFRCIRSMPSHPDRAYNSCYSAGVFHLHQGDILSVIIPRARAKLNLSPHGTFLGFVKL

B1: Anifrolumab (antibody, human IgG1, kappa, V domains shown)
VH: EVQLVQSGAEVKKPGESLKISCKGSGYIFTNYWIAWVRQMPGKGLESMGIIYPGDSDIRYSPSFQGQVTISADKSITTAYLQWSSLKASDTAMYYCARHDIEGFDYWGRGTLVTVSS
VL: EIVLTQSPGTLSLSPGERATLSCRASQSVSSSFFAWYQQKPGQAPRLLIYGASSRATGIPDRLSGSGSGTDFTLTITRLEPEDFAVYYCQQYDSSAITFGQGTRLEIKR
B2: B637302 (other)
heavy: EVQLVQSGAEVKKPGESLKISCKGSGYIFTNYWIAWVRQMPGKGLESMGIIYPGDSDIRYSPSFQGQVTISADKSITTAYLQWSSLKASDTAMYYCARHDIEGFDYWGRGTLVTVSSASTKGPSVFPLAPSSKSTSGGTAALGCLVKDYFPEPVTVSWNSGALTSGVHTFPAVLQSSGLYSLSSVVTVPSSSLGTQTYICNVNHKPSNTKVDKRVEPKSCDKTHTCPPCPAPEFEGGPSVFLFPPKPKDTLMISRTPEVTCVVVDVSHEDPEVKFNWYVDGVEVHNAKTKPREEQYNSTYRVVSVLTVLHQDWLNGKEYKCKVSNKALPASIEKTISKAKGQPREPQVYTLPPSRDELTKNQVSLTCLVKGFYPSDIAVEWESNGQPENNYKTTPPVLDSDGSFFLYSKLTVDKSRWQQGNVFSCSVMHEALHNHYTQKSLSLSPGK
light: EIVLTQSPGTLSLSPGERATLSCRASQSVSSSFFAWYQQKPGQAPRLLIYGASSRATGIPDRLSGSGSGTDFTLTITRLEPEDFAVYYCQQYDSSAITFGQGTRLEIKRTVAAPSVFIFPPSDEQLKSGTASVVCLLNNFYPREAKVQWKVDNALQSGNSQESVTEQDSKDSTYSLSSTLTLSKADYEKHKVYACEVTHQGLSSPVTKSFNRGECGGGGSGGGGSMLQMAGQCSQNEYFDSLLHACIPCQLRCSSNTPPLTCQRYCSTSCREEQGEFYDHLLRDCISCASICGQHPKQCAAFCE
notes: Fusion protein of anifrolumab, TACI-19-16 and BCMA-ECD-2
B3: B613303 (other)
heavy: EVQLVQSGAEVKKPGESLKISCKGSGYIFTNYWIAWVRQMPGKGLESMGIIYPGDSDIRYSPSFQGQVTISADKSITTAYLQWSSLKASDTAMYYCARHDIEGFDYWGRGTLVTVSSASTKGPSVFPLAPSSKSTSGGTAALGCLVKDYFPEPVTVSWNSGALTSGVHTFPAVLQSSGLYSLSSVVTVPSSSLGTQTYICNVNHKPSNTKVDKRVEPKSCDKTHTCPPCPAPEFEGGPSVFLFPPKPKDTLMISRTPEVTCVVVDVSHEDPEVKFNWYVDGVEVHNAKTKPREEQYNSTYRVVSVLTVLHQDWLNGKEYKCKVSNKALPASIEKTISKAKGQPREPQVYTLPPSRDELTKNQVSLTCLVKGFYPSDIAVEWESNGQPENNYKTTPPVLDSDGSFFLYSKLTVDKSRWQQGNVFSCSVMHEALHNHYTQKSLSLSPGK
light: EIVLTQSPGTLSLSPGERATLSCRASQSVSSSFFAWYQQKPGQAPRLLIYGASSRATGIPDRLSGSGSGTDFTLTITRLEPEDFAVYYCQQYDSSAITFGQGTRLEIKRTVAAPSVFIFPPSDEQLKSGTASVVCLLNNFYPREAKVQWKVDNALQSGNSQESVTEQDSKDSTYSLSSTLTLSKADYEKHKVYACEVTHQGLSSPVTKSFNRGECGGGGSGGGGSSRVDQEERFPQGLWTGVAMRSCPEEQYWDPLLGTCMSCKTICNHQSQRTCAAFCRSLSCRKEQGKFYDHLLRDCISCASICGQHPKQCAYFCENKLRSPVNLPPELMLQMAGQCSQNEYFDSLLHACIPCQLRCSSNTPPLTCQRYCNASVTNSVKGTNA
notes: Fusion protein of anifrolumab and TACI-BCMA
B4: B606401 (other)
heavy: EVQLVQSGAEVKKPGESLKISCKGSGYIFTNYWIAWVRQMPGKGLESMGIIYPGDSDIRYSPSFQGQVTISADKSITTAYLQWSSLKASDTAMYYCARHDIEGFDYWGRGTLVTVSSASTKGPSVFPLAPSSKSTSGGTAALGCLVKDYFPEPVTVSWNSGALTSGVHTFPAVLQSSGLYSLSSVVTVPSSSLGTQTYICNVNHKPSNTKVDKRVEPKSCDKTHTCPPCPAPEFEGGPSVFLFPPKPKDTLMISRTPEVTCVVVDVSHEDPEVKFNWYVDGVEVHNAKTKPREEQYNSTYRVVSVLTVLHQDWLNGKEYKCKVSNKALPASIEKTISKAKGQPREPQVYTLPPSRDELTKNQVSLTCLVKGFYPSDIAVEWESNGQPENNYKTTPPVLDSDGSFFLYSKLTVDKSRWQQGNVFSCSVMHEALHNHYTQKSLSLSPGK
light: EIVLTQSPGTLSLSPGERATLSCRASQSVSSSFFAWYQQKPGQAPRLLIYGASSRATGIPDRLSGSGSGTDFTLTITRLEPEDFAVYYCQQYDSSAITFGQGTRLEIKRTVAAPSVFIFPPSDEQLKSGTASVVCLLNNFYPREAKVQWKVDNALQSGNSQESVTEQDSKDSTYSLSSTLTLSKADYEKHKVYACEVTHQGLSSPVTKSFNRGECGGGGSGGGGSSTSCREEQGEFYDHLLRDCISCASICGQHPKQCAAFCE
notes: Anifrolumab with TACI-19-16 at the C-terminus of the light chain

Assays:
[1] = target: T1, type I interferon (IFN) receptor …; experiment: cell-based or functional assay
[2] = target: T1, type I interferon (IFN) receptor …; experiment: cell-based or functional assay; remark: listed apart in the source
[3] = target: recombinant human BAFF (R&D cat: 7537-BF-025/CF) (human, UniProt Q9Y275 134-285, limits assumed); experiment: cell-based or functional assay
[4] = target: T2, recombinant human ARPIL (R&D cat: …); experiment: cell-based or functional assay
[5] = target: T3, APRIL (Acro Biosystems, Cat: APL-H52D1); experiment: ELISA, APRIL coated, anti-human Fc-HRP, OD450
Procedure: The capabilities of fusion proteins B606401, B637302, B746201, and B805201 to bind to BAFF and APRIL were assessed by ELISA as follows:
(§1) BAFF (PeproTech, Cat: 310-13) or ARPIL (Acro Biosystems, Cat: APL-H52D1) was diluted to 1 μg/mL with PBS, and a 96-well plate was coated with the dilution overnight at 4° C. The plate was washed with PBST and blocked with Blocking Buffer (PBST containing 1% BSA) at 37° C. for 1 h. The plate was tapped. The test antibodies were diluted with Blocking Buffer. Incubation was performed at 37° C. for 1.5 h. The plate was washed with PBST. An HRP-mouse anti-human Fc antibody (GenScript, Cat: A01854-200) was diluted with Blocking Buffer. Incubation was performed at 37° C. for 40 min. The plate was washed with PBST. 100 μL of TMB substrate solution (Biopanda, Cat: TMB-S-003) was added, and color development was performed at 37° C. for 3 min. 100 μL of ELISA stop solution (Solarbio, Cat: C1058) was added. OD450 was measured.
The EC₅₀ value for the capability of B637302 to bind to APRIL decreased to 1/7 to ⅙ of that of telitacicept.

[6] = target: T3, APRIL (Acro Biosystems, Cat: APL-H52D1); experiment: ELISA, APRIL coated, anti-human Fc-HRP, OD450; remark: listed apart in the source
Procedure: The capabilities of B613301, B613302, and B613303, which are fusion proteins of anifrolumab and TACI-BCMA, to bind to BAFF and APRIL were assessed by ELISA as follows:
as §1, with “96-well plate (Costar, Cat: 3590) was coated” for “96-well plate was coated”

Sequence of recombinant human BAFF (R&D cat: 7537-BF-025/CF) (Q9Y275 134-285 limits assumed): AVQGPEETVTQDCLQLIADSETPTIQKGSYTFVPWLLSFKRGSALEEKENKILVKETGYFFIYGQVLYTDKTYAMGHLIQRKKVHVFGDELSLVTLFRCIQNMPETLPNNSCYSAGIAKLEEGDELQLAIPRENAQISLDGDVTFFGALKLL

Row | Binder | IC50 (nM), inhibition of the activity of type I interferons (IFN-β, HEK-Blue IFN-α/β cells) [1] | IC50, inhibition of IFN-α-induced in vitro differentiation of B cells into plasma cells [2] | Flow cytometry proliferating B cell proportion (%), mean, BAFF-induced, drug at 10 nM [3] | Flow cytometry proliferating B cell proportion (%), mean, BAFF-induced, drug at 100 nM [3] | Flow cytometry proliferating B cell proportion (%), mean, BAFF-induced, drug at 1000 nM [3] | Flow cytometry proliferating B cell proportion (%), mean, APRIL-induced, drug at 4.12 nM [4] | Flow cytometry proliferating B cell proportion (%), mean, APRIL-induced, drug at 12.35 nM [4] | Flow cytometry proliferating B cell proportion (%), mean, APRIL-induced, drug at 37.04 nM [4] | Flow cytometry proliferating B cell proportion (%), mean, APRIL-induced, drug at 111.11 nM [4] | Flow cytometry proliferating B cell proportion (%), mean, APRIL-induced, drug at 333.33 nM [4] | Flow cytometry proliferating B cell proportion (%), mean, APRIL-induced, drug at 1000.00 nM [4] | Emax [5] | Emax [6]
1 | B1 | 1.53 nM | 12.7 nM |  |  |  |  |  |  |  |  |  |  | 
2 | B2 | 1.59 nM | 10.8 nM | 23.8% | 22.2% | 10.9% | 50.6% | 50.7% | 53.6% | 51.5% | 48% | 33.6% | 2.9 nM | 
3 | B3 |  |  |  |  |  |  |  |  |  |  |  |  | 2.33 nM
4 | B4 | 1.94 nM | 17.4 nM | 28.1% | 25.3% | 17.9% | 52% | 52.9% | 53.6% | 53.1% | 50.6% | 40.3% | 2.81 nM | 
